Experimental data: US20090123452A1 (TORREY PINES INSTITUTE FOR MOLECULAR STUDIES AND CATALYST …, published 2009)

Experiments:
u-PA/IVa (phage) = u-PA/IVa (phage) (human, UniProt P00749 179-431); assay: phage display selection: stable complex with His-tagged PAI-1/69 bait captured on Cu-sepharose; increased sensitivity against PAI-1/69
Procedure: (§1) In brief, 5 μl (˜2×10¹² to ˜1×10¹³) u-PA phage, containing an equal representation of u-PA phage from all three u-PA phage libraries (0.2, 0.5 and 0.9% mutagenesis frequency), was mixed with 5 μl bait substrate (from 0.1 to 1.0 μM PAI-1/RRAR or PAI-1/69) and 10 μl 10× indirect buffer pH 7.4 (0.5 M Tris, 1.0 M NaCl, 10 mM EDTA, 0.1% Tween 80) in a total volume of 100 μl (i.e. reaction contained 80 μl H₂O).
(§2) The u-PA phage-PAI-1 inhibitor complexes were captured using CuSO₄ activated sepharose. Pre-activation of the chelating sepharose (200 μl; Pharmacia) was accomplished by treatment with CuSO₄ (100 mM). The CuSO₄ activated sepharose was blocked with 0.5% BSA in PBS buffer for 1 hour at room temperature. 100 μl of BSA blocked sepharose beads was added to 100 μl of the above panning mixture reaction in the presence of 800 μl of binding buffer (0.5 M NaCl, 20 mM Tris, 20 mM immidozole, pH7.4) to capture the His-tagged PAI-1 inhibitor-u-PA phage complexes. The incubation was continued for another 1 hour at room temperature. Next, the panning mixture was centrifuged for 1 min at 2000 rpm and the sepharose beads containing bound u-PA phage-PAI-1 inhibitor complexes were washed with 1 ml of binding buffer to remove unbound phages. The washing step was repeated 5-10 times and the beads containing bound complexes were transferred to new tubes after each wash to avoid any potential “carry over” of non-specific phages.

u-PA/IVb (phage) = u-PA/IVb (phage) (human, UniProt P00749 179-431); assay: as above
Procedure: as §1, §2

u-PA/IIIb (phage) = u-PA/IIIb (phage) (human, UniProt P00749 179-431); assay: as above
Procedure: as §1, §2

u-PA/Id (phage) = u-PA/Id (phage) (human, UniProt P00749 179-431); assay: as above
Procedure: as §1, §2

u-PA/IIb (phage) = u-PA/IIb (phage) (human, UniProt P00749 179-431); assay: as above
Procedure: as §1, §2

u-PA/Ic (phage) = u-PA/Ic (phage) (human, UniProt P00749 179-431); assay: as above
Procedure: as §1, §2

u-PA/Ia (phage) = u-PA/Ia (phage) (human, UniProt P00749 179-431); assay: as above
Procedure: as §1, §2

u-PA/IIIa (phage) = u-PA/IIIa (phage) (human, UniProt P00749 179-431); assay: as above
Procedure: as §1, §2

u-PA/IIId (phage) = u-PA/IIId (phage) (human, UniProt P00749 179-431); assay: as above
Procedure: as §1, §2

u-PA/Ib (phage) = u-PA/Ib (phage) (human, UniProt P00749 179-431); assay: as above
Procedure: as §1, §2

u-PA/IIc (phage) = u-PA/IIc (phage) (human, UniProt P00749 179-431); assay: as above
Procedure: as §1, §2

u-PA/IIa (phage) = u-PA/IIa (phage) (human, UniProt P00749 179-431); assay: as above
Procedure: as §1, §2

u-PA/IIIc (phage) = u-PA/IIIc (phage) (human, UniProt P00749 179-431); assay: as above
Procedure: as §1, §2

[1] = molecular target: T1, u-PA/IIb (purified two-chain enzyme) (human, UniProt P00749 21-431); assay: inhibition kinetics, 2nd order rate constant
T1 construct: F30V/K82E (chymotrypsin numbering); Full-length u-PA from COS-1 cells, made two-chain with plasmin-sepharose; also called u-PA/IIb (30, 82)
Excerpt: (§3) The indirect chromogenic assay as described in Part D above was used to determine the residual enzyme activity remaining as a function of time.
(§4) The rate constants for inhibition of wild-type or mutant u-PA by PAI-1 were under pseudo-first order conditions for an excess of PAI-1 over u-PA as described previously (see e.g., Holmes et al. (1987) Biochemistry, 26: 5133-5140; Beatty et al. (1980) J. Biol. Chem., 255:3931-3934; Madison et al. (1990) PNAS, 87: 3530-3533; Madison et al. (1993) Methods Enzymol., 223:249-271). […] Following incubation, the mixtures were diluted and the residual enzymatic activity was determined in a standard chromogenic assay as set forth in D above. Data were analyzed by plotting In (residual activity/initial activity) versus time and determining the slope of the resulting straight line. […] rate constants were then derived by dividing the slope by the concentration of the inhibitor in the reaction.
(§5) Following preincubation, the mixtures were quenched with an excess of neutralizing anti-PAI antibodies and residual enzymatic activity was measured in the indirect chromogenic assay. The indirect, chromogenic assays were compared with control reactions containing no PAI-1 or to which PAI-1 was added after preincubation and addition of anti-PAI-1 antibody, plasminogen and Spectrozyme PL to the reaction mixture.

[2] = molecular target: T2, u-PA/IVb (purified two-chain enzyme) (human, UniProt P00749 21-431); assay: inhibition kinetics, 2nd order rate constant
T2 construct: F30V/K82E/V159A/E80G/E84K/I89V/K187E (chymotrypsin numbering); Full-length u-PA from COS-1 cells, made two-chain with plasmin-sepharose; also called u-PA/IVb (30, 80, 82, 84, 89, 159, 187)
Excerpt: as §3, §4, §5

[3] = molecular target: T3, u-PA/IIIa (purified two-chain enzyme) (human, UniProt P00749 21-431); assay: inhibition kinetics, 2nd order rate constant
T3 construct: F30V/K82E/V159A (chymotrypsin numbering); Full-length u-PA from COS-1 cells, made two-chain with plasmin-sepharose; also called u-PA/IIIa (30, 82, 159)
Excerpt: as §3, §4, §5

[4] = molecular target: T4, u-PA/Ic (purified two-chain enzyme) (human, UniProt P00749 21-431); assay: inhibition kinetics, 2nd order rate constant
T4 construct: F30V (chymotrypsin numbering); Full-length u-PA from COS-1 cells, made two-chain with plasmin-sepharose; also called u-PA/Ic (30)
Excerpt: as §3, §4, §5

[5] = molecular target: T5, u-PA/IIIb (purified two-chain enzyme) (human, UniProt P00749 21-431); assay: inhibition kinetics, 2nd order rate constant
T5 construct: F30V/K82E/T39A/V159A (chymotrypsin numbering); Full-length u-PA from COS-1 cells, made two-chain with plasmin-sepharose; also called u-PA/IIIb (30, 39, 82, 159)
Excerpt: as §3, §4, §5

[6] = molecular target: T6, u-PA/IVa (purified two-chain enzyme) (human, UniProt P00749 21-431); assay: inhibition kinetics, 2nd order rate constant
T6 construct: F30V/K82E/V159A/E80G/I89V/K187E (chymotrypsin numbering); Full-length u-PA from COS-1 cells, made two-chain with plasmin-sepharose; also called u-PA/IVa (30, 80, 82, 89, 159, 187)
Excerpt: as §3, §4, §5

Measured: binding result

B1: mutant PAI-1/69 inhibitor (other)
chain: VHHPPSYVAHLASDFGVRVFQQVAQASKDRNVVFSPYGVASVLAMLQLTTGGETQQQIQAAMGFKIDDKGMAPALRHLYKELMGPWNKDEISTTDAIFVQRDLKLVQGFMPHFFRLFRSTVKQVDFSEVERARFIINDWVKTHTKGMISNLLGKGAVDQLTRLVLVNALYFNGQWKTPFPDSSTHRRLFHKSDGSTVSVPMMAQTNKFNYTEFTTPDGHYYDILELPYHGDTLSMFIAAPYEKEVPLSALTNILSAQLISHWKGNMTRLPRLLVLPKFSLETEVDLRKPLENLGMTDMFRQFQADFTSLSDQEPLHVAQALQKVKIEVNESGTVASSSTAVIPFGRSAPEEIIMDRPFLFVVRHNPTGTVLFMGQVMEP
notes: not shown: N-terminal poly histidine residues from the pPAIST7HS vector
binds: all assays above
